Here are results for 25 molecules from patent publication US20230272056A1 (Merck Sharp & Dohme, published 2023).

The target in test [1] is human LAP-TGFβ1 expressed on P3U1 cells (human, UniProt P01137 30-390). Briefly: cell-based or functional assay.
The target of test [2] is T1, human LAP-TGFB1 Fc fusion (human).
T1 construct: also called human LAP-TGFβ1-Fc; human LAP-TGFβ-Fc isoform 1
Briefly: SPR pH 6.0, antigen captured on Fab 54BLH. The text has this: A Series S C1 sensor chip (Cytiva, catalog BR100535) was immobilized with low densities of high affinity Fab 54BLH on a Biacore T200 instrument with 1×HBS-EP+(Teknova, catalog H8022). This surface served as a monovalent capture surface for a low-density layer of heterodimer human LAP-TGFβ1 complex leaving the second binding site exposed for monovalent kinetic binding analysis with both mAbs and Fabs. Immobilized flow cell 1 served as the reference and flow cells 2, 3 and 4 were used to evaluate the binding interaction between human LAP-TGFβ1 and yeast display mutant mAbs and Fabs.
Approximately 15-25 RU of human LAP-TGFβ1-Fc was captured to the Fab capture surface followed by injection of 1:3 serially diluted Fabs and mAbs from 6 nM to 0.07 nM (Fabs: 54BLH, 55BLH, 60BLH, 63BLH, 64BLH-mAbs: 69BLH, 70BLH) and 1:3 serially diluted Fab and mAbs from 60 nM to 0.74 nM (Fabs: 59BLH, 66BLH, 67BLH—mAbs: 74BLH, 75BLH, 78BLH, 79BLH, 81BLH, 82BLH) including 0 nM. The binding data was double referenced by subtraction of signal from a reference flow cell and the 0 nM injections for evaluation of Fabs and mAbs respectively. Binding rate constants were calculated/determined by fitting the data with a 1:1 binding model (Cytiva Biacore T200 Evaluation software 3.0).

Test [3] concerns the target T1, human LAP-TGFB1 Fc fusion. Briefly: BLI off-rate screen. On the procedure:
The Fab mutants including a positive control, 20E6 Fab, and a negative control Fab (Molecular Innovations, catalog HU-FAB-4510) were diluted to 200 nM in assay buffer and loaded to FAB2G sensors for 180 seconds followed by a one-hour incubation at room temperature in assay buffer to equilibrate the tips. The Fab loaded sensors were assessed for binding with 100 nM human LAP-TGFβ for 180 seconds followed by a 180 second dissociation phase in assay buffer on a ForteBio HTX (software version 9.0.0.66). Non-specific binding to the negative control Fab was subtracted and the binding sensorgrams were aligned to the start of the association phase on the X and Y axis. The Fab binding was fit with the 1:1 binding model, dissociation phase only, with local fitting using ForteBio Data Analysis 9.0 software.

Changes are numbered by the printed parent chain. Numbers in names are those of the source.

T1 sequence (chain, as listed by the source limits assumed): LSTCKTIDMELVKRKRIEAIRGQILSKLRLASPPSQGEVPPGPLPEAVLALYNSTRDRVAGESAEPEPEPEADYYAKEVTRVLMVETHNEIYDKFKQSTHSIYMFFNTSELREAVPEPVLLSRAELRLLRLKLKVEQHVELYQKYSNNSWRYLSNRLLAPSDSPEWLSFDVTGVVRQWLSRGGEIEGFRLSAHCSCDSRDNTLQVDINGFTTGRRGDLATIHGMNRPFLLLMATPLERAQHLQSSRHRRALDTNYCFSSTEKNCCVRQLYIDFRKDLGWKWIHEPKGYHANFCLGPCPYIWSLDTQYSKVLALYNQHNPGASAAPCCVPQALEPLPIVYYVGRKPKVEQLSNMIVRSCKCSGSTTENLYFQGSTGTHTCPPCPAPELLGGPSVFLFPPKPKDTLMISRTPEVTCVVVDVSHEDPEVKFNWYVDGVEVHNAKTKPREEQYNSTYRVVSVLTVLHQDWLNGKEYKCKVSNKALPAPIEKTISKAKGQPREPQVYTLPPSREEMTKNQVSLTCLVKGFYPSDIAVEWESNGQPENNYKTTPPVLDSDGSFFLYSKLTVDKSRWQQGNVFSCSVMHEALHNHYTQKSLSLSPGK
human LAP-TGFβ1 expressed on P3U1 cells, sequence (P01137 30-390): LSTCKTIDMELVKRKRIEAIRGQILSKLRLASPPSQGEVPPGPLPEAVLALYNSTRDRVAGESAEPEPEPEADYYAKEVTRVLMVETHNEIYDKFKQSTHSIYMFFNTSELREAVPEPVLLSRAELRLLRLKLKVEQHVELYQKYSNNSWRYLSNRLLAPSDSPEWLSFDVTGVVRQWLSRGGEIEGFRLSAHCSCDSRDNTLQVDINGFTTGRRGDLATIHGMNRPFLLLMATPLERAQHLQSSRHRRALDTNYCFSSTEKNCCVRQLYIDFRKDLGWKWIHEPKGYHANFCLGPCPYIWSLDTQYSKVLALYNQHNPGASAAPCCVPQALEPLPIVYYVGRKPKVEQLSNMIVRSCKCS

B1: parental 20E6 humanized antibody (antibody, IgG1, V domains shown)
VH: EVQLVQSGAEVKKPGASVKVSCKASGYTFTSYWMHWVRQAPGQGLEWMGRIDPQSGGIKYAQKFQGRATLTVDTSTSTAYMELSRLRSDDTAVYYCARWDYGGYFDVWGQGTLVTVSS
VL: DIQMTQSPSSLSASVGDRVTITCRASQDITNYLNWYQQKPGKAVKLLIYYTSRLHSGVPSRFSGSGSGTDYTLTISSLQPEDFATYFCQQGDTLPWTFGQGTKLEIK
Consider B1, for which, in test [1], the “Average EC50” value is 5.64 µg/mL, the “ELISA assay 2 EC50” value came out at 8.9 µg/mL and the “ELISA assay #1 EC50” value stood at 2.38 µg/mL.

B2: 10BLM (antibody, human IgG1, kappa, L234A L235A, V domains shown)
VH: B1 VH with W33D, I58T
VL: DIQMTQSPSSLSASVGDRVTITCRASQDIYNYLNWYQQKPGKAVKLLIYYTSVLETGVPSRFSGSGSGTDYTLTISSLQPEDFATYFCQQGDTLPWTFGQGTKLEIKR
For the molecule B2, in test [1], the “Average EC50” value is 0.083 µg/mL, the “ELISA assay 2 EC50” value amounted to 0.134 µg/mL and the “ELISA assay #1 EC50” value is 0.0332 µg/mL.

B3: 14BLM (antibody, human IgG1, kappa, L234A L235A, V domains shown)
VH: B1 VH with W33D, M34T
VL: B2 VL with V53Y
Consider B3, for which, in test [1], the “Average EC50” value turned out to be 0.158 µg/mL, the “ELISA assay 2 EC50” value was 0.146 µg/mL and the “ELISA assay #1 EC50” value amounted to 0.169 µg/mL.

B4: 13BLM (antibody, human IgG1, kappa, L234A L235A, V domains shown)
VH: B1 VH with W33D, S55T, G57D, Y104Q
VL: B2 VL with V53G
Take B4: in test [1], the “Average EC50” value amounted to 0.092 µg/mL, the “ELISA assay 2 EC50” value was determined as 0.105 µg/mL and the “ELISA assay #1 EC50” value was determined as 0.0785 µg/mL.

B5: 08BLM (antibody, human IgG1, kappa, L234A L235A, V domains shown)
VH: B1 VH with W33D, I58T, Y104Q
VL: B2 VL with V53G
Turning to B5, in test [1], the “Average EC50” value was determined as 0.076 µg/mL, the “ELISA assay 2 EC50” value was determined as 0.098 µg/mL and the “ELISA assay #1 EC50” value stood at 0.0539 µg/mL.

B6: 17BLM (antibody, human IgG1, kappa, L234A L235A, V domains shown)
VH: B1 VH with W33D
VL: B2 VL with V53R, T93E
Regarding B6, in test [1], the “Average EC50” value came out at 0.063 µg/mL, the “ELISA assay 2 EC50” value was found to be 0.089 µg/mL and the “ELISA assay #1 EC50” value is 0.0357 µg/mL.

B7: 20BLM (antibody, human IgG1, kappa, L234A L235A, V domains shown)
VH: B1 VH with W33D, I58E, W99Y
VL: B2 VL with V53R
For B7, in test [1], the “Average EC50” value came to 0.033 µg/mL, the “ELISA assay 2 EC50” value is 0.008 µg/mL and the “ELISA assay #1 EC50” value is 0.0574 µg/mL.

B8: 09BLM (antibody, human IgG1, kappa, L234A L235A, V domains shown)
VH: B1 VH with W33D, Q54I
VL: B2 VL with Y30F, V53H
For B8, in test [1], the “Average EC50” value was found to be 0.08 µg/mL, the “ELISA assay 2 EC50” value was found to be 0.13 µg/mL and the “ELISA assay #1 EC50” value worked out at 0.0295 µg/mL.

B9: 06BLM (antibody, human IgG1, L234A L235A, V domains shown)
VH: B1 VH with W33D, K59R, Y104Q
VL: B1 VL with T30Y, R53I, H55E, S56T
notes: IgG1 L234A L235A D265S/kappa; also called 69BLH; 42BMD
On to B9, for which, in test [1], the “Average EC50” value was determined as 0.125 µg/mL, the “ELISA assay 2 EC50” value amounted to 0.137 µg/mL and the “ELISA assay #1 EC50” value is 0.113 µg/mL. Besides, in test [2], the “Fab/mAb KD Ratio” value came out at 1.9, binding was characterised by a dissociation constant (Kd) of 0.0114 nM, the koff turned out to be 6.18e-05 s⁻¹ and the kon is 5.43e+06 M⁻¹ s⁻¹.

B10: VH G57E (63BIT) (Fab, V domains shown)
VH: B1 VH with G57E
VL: B2 VL with Y30T, V53R, E55H, T56S
notes: Light chain: parental 20E6 LC, implied
In test [3], B10 registered a Binding response of 0.69 nm, a Fold change of 1.1 fold and an off-rate (koff) of 0.0393 s⁻¹.

B11: VH K59W (61BIT) (Fab, V domains shown)
VH: B1 VH with K59W
VL: B2 VL with Y30T, V53R, E55H, T56S
notes: as for B10
Turning to B11, in test [3], the Binding response is 0.035 nm and the binding result is “no binding (tested: 100 nM antigen)”.

B12: VL T30D (37BIT) (Fab, V domains shown)
VH: B1 VH
VL: B2 VL with Y30D, V53R, E55H, T56S
notes: Heavy chain: parental 20E6 Fab HC, implied
Consider B12, for which, in test [3], the Binding response stood at 0.182 nm, the Fold change is 1.1 fold and the dissociation rate constant (koff) was 0.0402 s⁻¹.

B13: VH G102S (29BIT) (Fab, V domains shown)
VH: B1 VH with G102S
VL: B2 VL with Y30T, V53R, E55H, T56S
notes: as for B10
Consider B13, for which, in test [3], the Binding response was found to be 0.087 nm, the Fold change came out at 0.5 fold and the koff worked out at 0.0845 s⁻¹.

B14: VL R53E (31BIT) (Fab, V domains shown)
VH: B1 VH
VL: B2 VL with Y30T, V53E, E55H, T56S
notes: as for B12
In test [3], B14 returned a Binding response of 0.664 nm, a Fold change of 1.5 fold and a koff of 0.0286 s⁻¹.

B15: VH S31R (25BIT) (Fab, V domains shown)
VH: B1 VH with S31R
VL: B2 VL with Y30T, V53R, E55H, T56S
notes: as for B10
For B15, in test [3], the Binding response turned out to be 0.069 nm, the Fold change was determined as 1 fold and the koff was 0.0437 s⁻¹.

B16: VH K59Q (28BIT) (Fab, V domains shown)
VH: B1 VH with K59Q
VL: B2 VL with Y30T, V53R, E55H, T56S
notes: as for B10
In test [3], B16 displayed a Binding response of 0.165 nm, a Fold change of 0.7 fold and a koff of 0.0596 s⁻¹.

B17: VL L94Q (33BIT) (Fab, V domains shown)
VH: B1 VH
VL: B2 VL with Y30T, V53R, E55H, T56S, L94Q
notes: as for B12
In test [3], B17 had a Binding response of 0.341 nm, a Fold change of 0.7 fold and a koff of 0.0583 s⁻¹.

B18: VH H35R (62BIT) (Fab, V domains shown)
VH: B1 VH with H35R
VL: B2 VL with Y30T, V53R, E55H, T56S
notes: as for B10
With B18, in test [3], the Binding response is 0.021 nm and the binding result was “no binding (tested: 100 nM antigen)”.

B19: VL R53D (35BIT) (Fab, V domains shown)
VH: B1 VH
VL: B2 VL with Y30T, V53D, E55H, T56S
notes: as for B12
For the molecule B19, in test [3], the Binding response worked out at 0.398 nm, the Fold change was found to be 1.2 fold and the koff stood at 0.0341 s⁻¹.

B20: VL T30E (36BIT) (Fab, V domains shown)
VH: B1 VH
VL: B2 VL with Y30E, V53R, E55H, T56S
notes: as for B12
On to B20, for which, in test [3], the Binding response came to 0.439 nm, the Fold change came to 1 fold and the koff was found to be 0.0405 s⁻¹.

B21: VH S31K (24BIT) (Fab, V domains shown)
VH: B1 VH with S31K
VL: B2 VL with Y30T, V53R, E55H, T56S
notes: as for B10
Consider B21, for which, in test [3], the Binding response is 0.625 nm, the Fold change worked out at 1.1 fold and the koff is 0.037 s⁻¹.

B22: VH H35K (30BIT) (Fab, V domains shown)
VH: B1 VH with H35K
VL: B2 VL with Y30T, V53R, E55H, T56S
notes: as for B10
In test [3], B22 gave a Binding response of 0.115 nm, a Fold change of 0.8 fold and a koff of 0.0548 s⁻¹.

B23: VL R53I (34BIT) (Fab, V domains shown)
VH: B1 VH
VL: B2 VL with Y30T, V53I, E55H, T56S
notes: Heavy chain: parental 20E6 Fab HC, implied; also called VL R531 (34BIT)
In test [3], B23 had a Binding response of 0.757 nm, a Fold change of 1.7 fold and a koff of 0.0246 s⁻¹.

B24: VL L94D (32BIT) (Fab, V domains shown)
VH: B1 VH
VL: B2 VL with Y30T, V53R, E55H, T56S, L94D
notes: as for B12
As for B24, in test [3], the Binding response came out at 0.195 nm, the Fold change was determined as 0.7 fold and the koff came to 0.0618 s⁻¹.

B25: VH S55E (26BIT) (Fab, V domains shown)
VH: B1 VH with S55E
VL: B2 VL with Y30T, V53R, E55H, T56S
notes: as for B10
Turning to B25, in test [3], the Binding response stood at 0.489 nm, the Fold change turned out to be 0.8 fold and the koff was determined as 0.0519 s⁻¹.

For orientation: Kd means a measure of binding affinity in units of concentration. Low readings indicate tighter binding, high ones weaker binding. Broadly, the koff is the rate constant with which the complex falls apart. In general, kon refers to the rate constant with which the complex forms.
